Data on one substance can be found in article PMC3193175.

Broadly, the stoichiometry N is the number of molecules, sites or subunits per partner or assembly.

For this assay, the target named is split SUMO-modified PCNA (N-fragment and ^SUMOC-fragment self-assembled) (yeast) (UniProt P15873). The assay is described as follows: SEC.

Take “split SUMO-modified PCNA (N-fragment and ^SUMOC-fragment self-assembled) (from UniProt P15873 1-163; P15873 165-258) (complex)”: the stoichiometry N is 3.
